Laboratory results taken from US6656718B2, “Modified carboxypeptidase enzymes and their use” (Cancer Research Technology Limited, priority 2000, dated 2003).

Experiments:
[1] = CPG2 enzyme activity of variants; assay type: biochemical; conditions: clarified culture supernatants
Source text: Thus for example, CPG2 activity may be tested by the ability of the enzyme to hydrolyse methotrexate (MTX). CPG2 hydrolysis of MTX results in a change in absorbance at 320 nm which may be measured by spectrophotometry. CPG2 catalytic activity in solid tissues can be assayed using an indirect HPLC method, measuring, for example, 2,4-diamino-N^10 methypteroic acid (DAMPA, a metabolite of MTX).
CM79 binding and CPG2 enzyme activity of all CPG2 variants were initially tested in clarified culture supernatants for CM79 binding. […] The variant V8 MFE-23::CPG2 indicated the role of the c-terminus in CM79 binding of CPG2 (FIG. 4, Table 1). CM79 bound to all the remaining CPG2 variants (Table 1).
Radiolabelled proteins were FPLC purified using a Superose 12 column (Pharmacia; PBS mobile phase 0.5 ml/min). Gamma radiation emitting fractions at 135 kDa elution point were tested for CPG2 enzyme activity. Protein concentrations were determined using Lowry reagent according to the manufacturer's protocol (BioRad).

CM79 = CM79 binding to CPG2 variants by ELISA; set-up: species or system mice; conditions: clarified culture supernatants
Source text: CM79 binding and CPG2 enzyme activity of all CPG2 variants were initially tested in clarified culture supernatants for CM79 binding.

CM79 binding (CM79): Yes
B1: wild-type CPG2: MFE-23::CPG2 fusion protein with wild-type CPG2: Region 1 KEYGVRD (SEQ ID NO:2), Region 2 GAGK (SEQ ID NO:4) (protein)
chain: ALAQKRDNVLFQAATDEQPAVIKTLEKLVNIETGTGDAEGIAAAGNFLEAELKNLGFTVTRSKSAGLVVGDNIVGKIKGRGGKNLLLMSHMDTVYLKGILAKAPFRVEGDKAYGPGIADDKGGNAVILHTLKLLKEYGVRDYGTITVLFNTDEEKGSFGSRDLIQEEAKLADYVLSFEPTSAGDEKLSLGTSGIAYVQVNITGKASHAGAAPELGVNALVEASDLVLRTMNIDDKAKNLRFNWTIAKAGNVSNIIPASATLNADVRYARNEDFDAAMKTLEERAQQKKLPEADVKVIVTRGRPAFNAGEGGKKLVDKAVAYYKEAGGTLGVEERTGGGTDAAYAALSGKPVIESLGLPGFGYHSDKAEYVDISAIPRRLYMAARLIMDLGAGK
Enzyme Activity [1]: Yes
